Test results reported in patent publication US20230203161A1 (TENEOBIO, published 2023).

target: T1, human Prostate Specific Membrane Antigen (PSMA) (human, UniProt Q04609 1-750); assay: flow cytometry on LNCaP cells
T1 construct: whole, on cells; also called Glutamate Carboxypeptidase II; FOLH1
Procedure: Briefly, 50,000 target cells were stained with a dilution series of purified UniAbs™ for 30 minutes at 4° C. Following incubation, the cells were washed twice with flow cytometry buffer (1×PBS, 1% BSA, 0.1% NaN₃) and stained with goat F(ab′)₂ anti-human IgG conjugated to R-phycoerythrin (PE) (Southern Biotech, cat. #2042-09) to detect cell-bound antibodies. After a 20-minute incubation at 4° C., the cells were washed twice with flow cytometry buffer and the mean fluorescence intensity (MFI) was measured by flow cytometry. The MFI of cells stained with secondary antibody alone were used for determination of background signal and binding of each antibody was converted to fold over background. […] In some experiments EC50 values were calculated using GraphPad Prism 7.
Column 1 indicates the clone ID of the HCAb. Column 2 indicates binding to LNCaP cells measured as fold over the background MFI signal.

T1 sequence (Q04609 whole entry): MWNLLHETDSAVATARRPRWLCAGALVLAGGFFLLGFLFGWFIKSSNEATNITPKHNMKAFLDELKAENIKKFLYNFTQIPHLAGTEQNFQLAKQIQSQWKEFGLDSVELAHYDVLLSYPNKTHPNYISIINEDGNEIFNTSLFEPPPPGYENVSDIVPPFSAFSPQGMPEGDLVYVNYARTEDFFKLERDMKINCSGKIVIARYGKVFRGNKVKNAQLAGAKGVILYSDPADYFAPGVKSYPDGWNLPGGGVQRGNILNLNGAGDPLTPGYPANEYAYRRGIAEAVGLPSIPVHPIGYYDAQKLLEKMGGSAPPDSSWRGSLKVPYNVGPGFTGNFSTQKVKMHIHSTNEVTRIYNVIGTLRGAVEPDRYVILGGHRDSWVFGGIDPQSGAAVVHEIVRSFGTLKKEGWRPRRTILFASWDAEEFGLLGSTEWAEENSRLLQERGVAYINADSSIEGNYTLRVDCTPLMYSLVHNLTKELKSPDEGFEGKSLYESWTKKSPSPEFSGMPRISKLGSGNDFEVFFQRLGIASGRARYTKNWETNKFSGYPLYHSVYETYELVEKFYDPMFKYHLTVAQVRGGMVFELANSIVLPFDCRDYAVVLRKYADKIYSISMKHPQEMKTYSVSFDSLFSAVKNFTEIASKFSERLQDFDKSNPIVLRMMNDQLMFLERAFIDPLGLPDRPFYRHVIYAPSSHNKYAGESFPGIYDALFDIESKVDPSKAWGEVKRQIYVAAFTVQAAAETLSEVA

fold over background MFI [fold over background] | Binder
47 | anti-PSMA heavy-chain antibody (HCAb) clone ID 345480 (antibody, V domains shown, Heavy chain-only antibody (UniAb)) VH: QVQLVESGGGVVQPGRSLRLSCAASGFSFSSYGMHWVRQAPGKGLEWVAVIWYDGSNRYYADSVKGRFTISRDNSKNTLYLQMNSLRAEDTAVYYCAREPRIGYYYESSGYYSLDYRGQGTLVTVSS
125 | anti-PSMA heavy-chain antibody (HCAb) clone ID 326084 (antibody, V domains shown, Heavy chain-only antibody (UniAb)) VH: QVQLVESGGGVVQPGRSLRLSCAASGFSFSSYGMHWVRQAPGKGLEGVAVIWYDGSNRYYADSVKGRFTISRDNSKNTLYLQMNSLRAEDTAVYYCAREPRIGYYYDSSGYYSLDYRGQGTLVTVSS
84 | anti-PSMA heavy-chain antibody (HCAb) clone ID 345443 (antibody, V domains shown, Heavy chain-only antibody (UniAb)) VH: QVQLVESGGGVVQPGRSLRLSCAASGFSFSSYGMHWVRQAPGKGLEGVAVIWYDGSNRYYADSVKGRFTISRDNSKNTLFLQMNSLRAEDTAVYYCAREPRIGYYYESSGYYSLDYRGQGTLVTVSS
55 | anti-PSMA heavy-chain antibody (HCAb) clone ID 345508 (antibody, V domains shown, Heavy chain-only antibody (UniAb)) VH: QVQLVESGGGVVQPGRSLRLSCAASGFSFSSYGMHWVRQAPGKGPEWVAVIWYDGSNRYYADSVKGRFTISRDNSKNTLYLQMNSLRAEDTAVYYCAREPRIGYYYESSGYYSLDYRGQGTLVTVSS
109 | anti-PSMA heavy-chain antibody (HCAb) clone ID 326029 (antibody, V domains shown, Heavy chain-only antibody (UniAb)) VH: QVQLVESGGGVVQPGRSLRLSCAASGFSFSRYGMHWVRQAPGKGLEWVAVISYDGSNKYYADSVKGRFTISRDNSKNTLYLQMNSLRAEDTAVYYCAREPRVGYYYETSGYYSLDYRGQGTLVTVSS
37 | anti-PSMA heavy-chain antibody (HCAb) clone ID 345509 (antibody, V domains shown, Heavy chain-only antibody (UniAb)) VH: QVQLVESGGGLVQPGGSLRLSCAASGFSFSSYGMHWVRQAPGKGLEGVAVIWYDGSNKYYADSVKGRFTISRDNSKNTMYLQMNSLRAEDTAVYYCAREPRIGYYYESSGYYSLDYRGQGTLVTVSS
68 | anti-PSMA heavy-chain antibody (HCAb) clone ID 345463 (antibody, V domains shown, Heavy chain-only antibody (UniAb)) VH: QVQLVESGGGVVQPGRSLRLSCAASGFIFRSYGMHWVRQAPGKGPEWVAVIWYDGSNKYYADSVKGRFTISRDNSKNTLYLQMNSLRAEDTAVYYCAREPRIGYYYESSGYYSLDYRGQGTLVTVSS
210 | anti-PSMA heavy-chain antibody (HCAb) clone ID 325867 (antibody, V domains shown, Heavy chain-only antibody (UniAb)) VH: QVQLVESGGGVVQPGRSLRLSCAASGFSFRSYGMHWVRQAPGKGLEWVAVIWYDGSNKYYADSVKGRFTISRDYSKNTLYLQMNSLRAEDTAVYYCAREPRIGYYYESSGYDSLDYRGQGTLVTVSS
22 | anti-PSMA heavy-chain antibody (HCAb) clone ID 345421 (antibody, V domains shown, Heavy chain-only antibody (UniAb)) VH: QVQLVESVGGVVQPGRSLRLSCAASGFSFSSYGMHWVRQAPGKGLEGVAVIWYDGSNRYYADSVKGRFTISRDNSKNTLYLQMNSLRAEDTAVYYCAREPRIGYYYESSGYYSLDYRGQGTLVTVSS
14 | anti-PSMA heavy-chain antibody (HCAb) clone ID 345447 (antibody, V domains shown, Heavy chain-only antibody (UniAb)) VH: QVQLVESGGGVVQPGRSLRLSCAASGFSFSSYGMHWVRQAPGKGLEGVAVISYDGSNRYYADSVKGRFTISRDNSKNTLYLQMNSLRAEDTAVYYCAREPRIGYYYESSGYYSLDYRGQGTLVTVSS
87 | anti-PSMA heavy-chain antibody (HCAb) clone ID 345436 (antibody, V domains shown, Heavy chain-only antibody (UniAb)) VH: QVQLVESGGGVVQPGRSLRLSCAASGFSFSRYGMHWVRQAPGKGLEGVAVIWYDGSNKYYADSVKGRFTISRDNSKNTLYLQMNSLRAEDTAVYYCAREPRIGYYYESSGYYSLDYRGQGTLVTVSS
129 | anti-PSMA heavy-chain antibody (HCAb) clone ID 326087 (antibody, V domains shown, Heavy chain-only antibody (UniAb)) VH: QVQLVESGGGVVQPGRSLRLSCAASGFIFRSYGMHWVRQAPGKGPEWVAVIWYDGSNKYYADSVKGRFTISRDNSKNTLYLQMNSLRAEDTAVYYCAREPRIGYYYDSSGYDSLDYRGQGTLVTVSS
80 | anti-PSMA heavy-chain antibody (HCAb) clone ID 345482 (antibody, V domains shown, Heavy chain-only antibody (UniAb)) VH: QVQLVESGGGVVQPGRSLRLSCAASGFSFSSYGMHWVRQAPGKGLEGVAVIWYDGSNRYYADSVKGRFTISRDSSKNTLYLQMNSLRAEDTAVYYCAREPRIGYYYESSGYYSLDYRGQGTLVTVSS
13 | anti-PSMA heavy-chain antibody (HCAb) clone ID 345438 (antibody, V domains shown, Heavy chain-only antibody (UniAb)) VH: QVQLVESGGGVVQPGRSLRLSCAASGFSFSSYGMHWVRQAPGKGPEWVAVIWYDGSNKYYADSVKGRFTISRDNSKNTLYLQMNSLRAEDTAVYYCAREPRIGYYYESSGYYSLDYRGQGTLVTVSS
71 | anti-PSMA heavy-chain antibody (HCAb) clone ID 345485 (antibody, V domains shown, Heavy chain-only antibody (UniAb)) VH: QVQLVESGGGVVQPGRSLRLSCAASGFSFRSYGMHWVRQAPGKGLEWVAVIWYDGSNKYYADSVKGRFTISRDNSKNTMYLQMNSLRAEDTAVYYCAREPRIGYYYESSGYYSLDYRGQGTLVTVSS
59 | anti-PSMA heavy-chain antibody (HCAb) clone ID 345505 (antibody, V domains shown, Heavy chain-only antibody (UniAb)) VH: QVQLVESGGGVVQPGRSLRLSCAASGFTFISYGMHWVRQAPGKGLEGVAVIWYDGSNRYYADSVKGRFTISRDNSKNTLYLQMNSLRAEDTAVYYCAREPRIGYYYESSGYYSLDYRGQGTLVTVSS
112 | anti-PSMA heavy-chain antibody (HCAb) clone ID 345497 (antibody, V domains shown, Heavy chain-only antibody (UniAb)) VH: QVQLVESGGGVVQPGRSLRLSCAASGFSFSRYGMHWVRQAPGKGLEGVAVIWYDGSNRYYADSVKGRFTISRDNSKNTLYLQMNSLRAEDTAVYYCAREPRIGYYYESSGYYSLDYRGQGTLVTVSS
138 | anti-PSMA heavy-chain antibody (HCAb) clone ID 326027 (antibody, V domains shown, Heavy chain-only antibody (UniAb)) VH: QVQLVESGGGVVQPGRSLRLSCAASGFSFRSYGMHWVRQAPGKGLEWVAVIWYDGSNKYYADSVKGRFTISRDNSKNTLYLQMNSLRAEDTAVYYCAREPRIGYYYDSSGYDSLDYRGQGTLVTVSS
38 | anti-PSMA heavy-chain antibody (HCAb) clone ID 326116 (antibody, V domains shown, Heavy chain-only antibody (UniAb)) VH: QVQLVESGGGVVQPGRSLRLSCAASGFSFSRYGMHWVRQAPGKGLEGVAVISYDGSNKYYADSVKGRFTISRDYSKNTLYLQMNSLRAEDTAVYYCAREPRIGYYYDSSGYDSLDYRGQGTLVTVSS
80 | anti-PSMA heavy-chain antibody (HCAb) clone ID 345490 (antibody, V domains shown, Heavy chain-only antibody (UniAb)) VH: QVQLVESGGGLVKPGGSLRLSCAASGFSFSSYGMHWVRQAPGKGLEGVAVIWYDGSNRYYADSVKGRFTISRDNSKNTLYLQMNSLRAEDTAVYYCAREPRIGYYYESSGYYSLDYRGQGTLVTVSS
23 | anti-PSMA heavy-chain antibody (HCAb) clone ID 345444 (antibody, V domains shown, Heavy chain-only antibody (UniAb)) VH: QVQLVESGGGVVQPGRSLRLSCAASGFTFSSYGMHWVRQAPGKGLEGVAVIWYDGSNRYYADSVKGRFTISRDNSKNTLYLQMNSLRAEDTAVYYCAREPRIGYYYESSGYYSLDYRGQGTLVTVSS
163 | anti-PSMA heavy-chain antibody (HCAb) clone ID 325836 (antibody, V domains shown, Heavy chain-only antibody (UniAb)) VH: QVQLVESGGGVVQPGRSLRLSCAASGFSFRSYGMHWVRQAPGKGLEWVAVIWYDGSNKYYADSVKGRFTISRDYSKNTLYLQMNSLRAEDTAVYYCAREPRIGYYYDSSGYDSLDYRGQGTLVTVSS
117 | anti-PSMA heavy-chain antibody (HCAb) clone ID 326028 (antibody, V domains shown, Heavy chain-only antibody (UniAb)) VH: QVQLVESGGGVVQPGRSLRLSCAASGFSFRSYGMHWVRQAPGKGLEWVAVISYDGSNKYYADSVKGRFTISRDYSKNTLYLQMNSLRAEDTAVYYCAREPRIGYYYDSSGYDSLDYRGQGTLVTVSS
101 | anti-PSMA heavy-chain antibody (HCAb) clone ID 345493 (antibody, V domains shown, Heavy chain-only antibody (UniAb)) VH: QVQLVESGGGVVQPGRSLRLSCAASGFSFSRYGMHWVRQAPGKGLEWVAVIWYDGSNRYYADSVKGRFTISRDNSKNTLYLQMNSLRAEDTAVYYCAREPRIGYYYESSGYYSLDYRGQGTLVTVSS
102 | anti-PSMA heavy-chain antibody (HCAb) clone ID 345461 (antibody, V domains shown, Heavy chain-only antibody (UniAb)) VH: QVQLVESGGGVVQPGRSLRLSCAASGFSFTSYGMHWVRQAPGKGLEGVAVIWYDGSNRYYADSVKGRFTISRDNSKNTLYLQMNSLRAEDTAVYYCAREPRIGYYYESSGYYSLDYRGQGTLVTVSS
200 | anti-PSMA heavy-chain antibody (HCAb) clone ID 325742 (antibody, V domains shown, Heavy chain-only antibody (UniAb)) VH: QVQLVESGGGVVQPGRSLRLSCAASGFSFSSYGMHWVRQAPGKGLEWVAVIWYDGSNKYYADSVKGRFTISRDYSKNTLYLQMNSLRAEDTAVYYCAREPRIGYYYESSGYDSLDYRGQGTLVTVSS
282 | anti-PSMA heavy-chain antibody (HCAb) clone ID 325920 (antibody, V domains shown, Heavy chain-only antibody (UniAb)) VH: QLQLQESGPGLVKPSETLSLTCTVSGGSISSSSYYWGWIRQPPGKGLEWIGSIDYSGYTYYNPSLQSRVTISVDTSKNQFSLKLSSVTAADTAVYNCARHKAATADFDYRGQGTLVTVSS
243 | anti-PSMA heavy-chain antibody (HCAb) clone ID 346165 (antibody, V domains shown, Heavy chain-only antibody (UniAb)) VH: QLQLQESGPGLVKPSETLSLTCTVSGGSISSSSYYWGWIRQPPGKGLEWIGSVDYSGYTYYNPSLQSRVTISVDTSKNQFSLKLSSVTAADTAVYNCARHKAATADFDYRGQGTLVTVSS
25 | anti-PSMA heavy-chain antibody (HCAb) clone ID 326109 (antibody, V domains shown, Heavy chain-only antibody (UniAb)) VH: QLQLQESGPGLVKPSETLSLTCTVSGGSISSNSYYWGWIRQSPGKGLEWLGSIYDSGSTHYNPSLKSRVIISGDTSKNQFSLKLSSVTAADTAVYYCARHKAATADFDYRGQGTLVTVSS
264 | anti-PSMA heavy-chain antibody (HCAb) clone ID 346181 (antibody, V domains shown, Heavy chain-only antibody (UniAb)) VH: QLQLQESGPGLVKPSETLSLTCTVSGGSISSSNYFWGWIRQSPGKGLEWIGSIDYSGYTYYNPSLKSRVTISVDTSKNQFSLKLSSVTAADTAVYNCARHKAATADFDYRGQGTLVTVSS
